Assay results from paper PMC10834949.

Assays:
[1] = target: Aβ42 fibrils; assay: NMR titration; solution 1H-15N HSQC of 74 uM 15N-labelled BRICHOS before and after adding sonicated unlabelled Aβ42 fibrils at 1:1 (related to monomeric Aβ42); 20 mM sodium phosphate, 0.2 mM EDTA, pH 7.4, 25 °C; loss of signal intensity taken as the bound population
[2] = target: Aβ42 fibrils; assay: SPR; sonicated Aβ42 fibrils immobilised by amine coupling on a C1 chip (BIAcore 3000); R221E Bri2 BRICHOS injected at 0.195-50 uM in HBS-E (10 mM HEPES, 150 mM NaCl, 0.2 mM EDTA, pH 7.5), 30 uL/min; two-phase association and two-phase dissociation model, global fit; apparent constants
[3] = target: Aβ42 fibrils; assay: co-sedimentation; sample of co-incubated BRICHOS-Aβ42 fibrils centrifuged; BRICHOS in the supernatant measured by SDS-PAGE

Substance: recombinant human Bri2 BRICHOS R221E monomer (domain or fragment)
- percent of HSQC signal intensity left after adding fibrils at 1:1 [1]: 90%
- percent of total BRICHOS bound [1]: 5 to 10%
- relative signal attenuation (population of bound BRICHOS) [1]: 10%
- KD app of the strong phase (two-phase model) [2]: 12.9 nM
- percent of BRICHOS in the soluble fraction [3]: 95%
- percent of total BRICHOS bound [3]: 5 to 10%
